Experimental data: publication PMC13000311 (Nature Communications, 2026)

B1: human flotillin-1 with a C-terminal 3× FLAG tag (natural protein, UniProt O75955 1-427, looked up)
chain: MFFTCGPNEAMVVSGFCRSPPVMVAGGRVFVLPCIQQIQRISLNTLTLNVKSEKVYTRHGVPISVTGIAQVKIQGQNKEMLAAACQMFLGKTEAEIAHIALETLEGHQRAIMAHMTVEEIYKDRQKFSEQVFKVASSDLVNMGISVVSYTLKDIHDDQDYLHSLGKARTAQVQKDARIGEAEAKRDAGIREAKAKQEKVSAQYLSEIEMAKAQRDYELKKAAYDIEVNTRRAQADLAYQLQVAKTKQQIEEQRVQVQVVERAQQVAVQEQEIARREKELEARVRKPAEAERYKLERLAEAEKSQLIMQAEAEAASVRMRGEAEAFAIGARARAEAEQMAKKAEAFQLYQEAAQLDMLLEKLPQVAEEISGPLTSANKITLVSSGSGTMGAAKVTGEVLDILTRLPESVERLTGVSISQVNHKPLRTA

Columns and labels:
cryo-EM structure = biological target: the molecule itself; assay: cryo-EM structure
[1] = biological target: B1; assay: cryo-EM structure

stoichiometry N [1] | Binder | binding result (cryo-EM structure)
 | B1 | binds
44 protomers (22 flotillin-1 and 22 flotillin-2) | human flotillin-2 (as in the purified complex used for cryo-EM) (natural protein, UniProt Q14254 1-428, looked up) MGNCHTVGPNEALVVSGGCCGSDYKQYVFGGWAWAWWCISDTQRISLEIMTLQPRCEDVETAEGVALTVTGVAQVKIMTEKELLAVACEQFLGKNVQDIKNVVLQTLEGHLRSILGTLTVEQIYQDRDQFAKLVREVAAPDVGRMGIEILSFTIKDVYDKVDYLSSLGKTQTAVVQRDADIGVAEAERDAGIREAECKKEMLDVKFMADTKIADSKRAFELQKSAFSEEVNIKTAEAQLAYELQGAREQQKIRQEEIEIEVVQRKKQIAVEAQEILRTDKELIATVRRPAEAEAHRIQQIAEGEKVKQVLLAQAEAEKIRKIGEAEAAVIEAMGKAEAERMKLKAEAYQKYGDAAKMALVLEALPQIAAKIAAPLTKVDEIVVLSGDNSKVTSEVNRLLAELPASVHALTGVDLSKIPLIKKATGVQV | 
